Patent US6432922 (CORVAS INTERNATIONAL, dated 2002)
Values joined by “and” are separate entries in the source; they are usually repeats but may differ in a detail not shown here. Equal values may be shown once. Non-standard residues stand in square brackets, D forms with d. Primed or numbered codes have the meaning given here. No end group written: not given here. *: point of attachment. cyclohexylmethylazacarbonyl = cyclohexylmethylazacarbonyl N-terminal cap, introduced with cyclohexylmethyl isocyanate, O=C(NCC1CCCCC1)*; benzylazacarbonyl = benzylazacarbonyl N-terminal cap (benzylaminocarbonyl), introduced with benzyl isocyanate, O=C(NCc1ccccc1)*; Argininal = arginine aldehyde, N=C(N)NCCC[C@@H](C=O)N*; argininal = arginine aldehyde, N=C(N)NCCC[C@@H](C=O)N*; aldehyde′ = argininal (arginine aldehyde) C-terminus; Propanoyl(3-cHex) = O=C(CCC1CCCCC1)*; Isobutyloxycarbonyl = CC(C)COC(=O)*; d(aThr) = C[C@@H](O)[C@@H](N)C(=O)O; cisHyp = O=C(O)[C@@H]1C[C@H](O)CN1; Isopropoxycarbonyl = CC(C)OC(=O)*; 3‑phenylpropyl = c1ccc(CCC*)cc1; d(hSer) = N[C@H](CCO)C(=O)O; Isovaleryl = CC(C)CC(=O)*; NMeA = CN[C@@H](C)C(=O)O; dAbu = CC[C@@H](N)C(=O)O; dDap = NC[C@@H](N)C(=O)O; Cbz = O=C(OCc1ccccc1)*; Sar = CNCC(=O)O

Tests used:
Assay in all cases: cell-based or functional assay
[1] = molecular target: Urokinase (Abbokinase), manufactured by Abbott Laboratories (UniProt P00749 156-431)
[2] = molecular target: Human rt-PA (Activase), obtained from Genentech Inc. (human, UniProt P00750 36-562)
Human rt-PA (Activase), obtained from Genentech Inc., sequence (P00750 36-562 limits assumed): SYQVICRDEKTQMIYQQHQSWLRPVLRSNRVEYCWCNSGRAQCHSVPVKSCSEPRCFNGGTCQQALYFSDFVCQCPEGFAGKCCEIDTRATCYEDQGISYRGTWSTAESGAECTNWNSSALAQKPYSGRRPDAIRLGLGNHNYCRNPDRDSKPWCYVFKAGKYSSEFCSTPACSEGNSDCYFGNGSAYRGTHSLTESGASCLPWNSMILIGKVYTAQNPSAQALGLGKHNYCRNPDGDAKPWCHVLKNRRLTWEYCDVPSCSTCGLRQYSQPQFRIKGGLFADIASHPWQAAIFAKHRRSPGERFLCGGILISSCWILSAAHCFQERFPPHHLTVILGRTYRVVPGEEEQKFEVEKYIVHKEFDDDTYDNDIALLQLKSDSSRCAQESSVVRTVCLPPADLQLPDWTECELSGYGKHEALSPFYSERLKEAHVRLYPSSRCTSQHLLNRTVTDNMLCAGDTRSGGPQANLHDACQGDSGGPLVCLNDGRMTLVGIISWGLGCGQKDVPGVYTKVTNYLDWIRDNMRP

[3] = molecular target: Purified human plasmin, obtained from Enzyme Research Laboratories, Inc. (human, UniProt P00747 97-810, limits assumed)
Purified human plasmin, obtained from Enzyme Research Laboratories, Inc., sequence (P00747 97-810 limits assumed): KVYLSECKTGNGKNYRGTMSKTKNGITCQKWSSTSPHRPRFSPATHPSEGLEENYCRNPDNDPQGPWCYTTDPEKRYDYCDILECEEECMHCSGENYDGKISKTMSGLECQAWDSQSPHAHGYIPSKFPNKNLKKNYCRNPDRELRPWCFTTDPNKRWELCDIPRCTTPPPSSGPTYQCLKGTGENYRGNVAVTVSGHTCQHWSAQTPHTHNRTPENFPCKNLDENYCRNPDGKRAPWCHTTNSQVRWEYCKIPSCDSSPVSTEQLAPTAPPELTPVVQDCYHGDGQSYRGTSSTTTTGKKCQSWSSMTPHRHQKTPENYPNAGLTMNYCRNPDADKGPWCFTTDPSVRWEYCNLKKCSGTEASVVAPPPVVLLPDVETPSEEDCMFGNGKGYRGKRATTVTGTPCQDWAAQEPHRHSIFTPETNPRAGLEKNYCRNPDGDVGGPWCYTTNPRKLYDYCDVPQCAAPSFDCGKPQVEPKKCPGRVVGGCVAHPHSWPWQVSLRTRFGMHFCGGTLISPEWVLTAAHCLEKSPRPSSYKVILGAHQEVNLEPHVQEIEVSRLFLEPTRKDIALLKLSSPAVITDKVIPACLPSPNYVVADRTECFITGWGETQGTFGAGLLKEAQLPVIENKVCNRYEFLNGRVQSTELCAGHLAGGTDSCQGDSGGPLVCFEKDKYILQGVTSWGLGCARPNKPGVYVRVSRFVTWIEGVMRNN

B1: (-)menthyloxy-carbonyl-D-seryl-alanyl-argininal (peptide)
peptide: {(−)menthyloxycarbonyl}-[dS]-Ala-[Argininal]
IC50 [1]: < 100 nM | IC50 [2]: > 2500 nM

B2: benzyloxycarbonyl-threonyl-alanyl-argininal (peptide)
peptide: Cbz-Thr-Ala-[argininal]
IC50 [1]: ≥ 100 nM and ≤ 250 nM | IC50 [2]: > 2500 nM

B3: benzyloxycarbonyl-D-seryl-L-seryl-argininal (peptide)
peptide: Cbz-[dS]-Ser-Arg-{aldehyde′}
IC50 [1]: ≥ 100 nM and ≤ 250 nM | IC50 [2]: > 2500 nM

B4: benzyloxycarbonyl-D-allothreonyl-alanyl-argininal (peptide)
peptide: Cbz-[d(aThr)]-Ala-Arg-{aldehyde′}
IC50 [1]: < 100 nM | IC50 [2]: > 2500 nM

B5: 3-phenylpropylsulfonyl-D-seryl-alanyl-argininal (peptide)
peptide: {3‑phenylpropylsulfonyl}-[dS]-Ala-Arg-{aldehyde′}
IC50 [1]: < 100 nM | IC50 [2]: > 2500 nM

B6: cyclohexylmethyloxycarbonyl-D-seryl-alanyl-argininal (peptide)
peptide: cyclohexylmethyloxycarbonyl-[dS]-Ala-[argininal]
IC50 [1]: < 100 nM | IC50 [2]: > 2500 nM

B7: benzyloxycarbonyl-D-allothreonyl-N-methylalanyl-argininal (peptide)
peptide: Cbz-[d(aThr)]-[NMeA]-Arg-{aldehyde′}
IC50 [1]: ≥ 100 nM and ≤ 250 nM

B8: 3-cyclohexylpropionyl-D-seryl-alanyl-argininal (peptide)
peptide: {Propanoyl(3-cHex)}-[dS]-Ala-Arg-{aldehyde′}
IC50 [3]: > 2500 nM | IC50 [2]: > 2500 nM

B9: isovaleryl-D-seryl-alanyl-argininal (peptide)
peptide: Isovaleryl-[dS]-Ala-[argininal]
IC50 [3]: > 2500 nM | IC50 [2]: > 2500 nM

B10: i-butoxycarbonyl-D-Ser-Ala-Arg-CO-phenethylamide, trifluoroacetate salt (peptide)
peptide: Isobutyloxycarbonyl-[dS]-Ala-Arg-{CO‑phenethylamide}
modifications: also: trifluoroacetate salt
IC50 [1]: ≥ 100 nM and ≤ 250 nM | IC50 [2]: > 2500 nM

B11: N-α-benzyloxycarbonyl-N-β-methyloxycarbonyl-D-2,3-diaminopropionyl-alanyl-argininal (peptide)
peptide: Cbz-[dDap](methyloxycarbonyl)-Ala-[argininal]
IC50 [2]: > 2500 nM

B12: benzyloxycarbonyl-seryl-alanyl-argininal (peptide)
peptide: Cbz-Ser-Ala-[argininal]
IC50 [2]: > 2500 nM

B13: benzyloxycarbonyl-D-seryl-sarcosyl-argininal (peptide)
peptide: Cbz-[dS]-[Sar]-[argininal]
IC50 [2]: > 2500 nM

B14: benzyloxycarbonyl-D-seryl-2-glycyl-argininal (peptide)
peptide: Cbz-[dS]-Gly-Arg-{aldehyde′}
IC50 [1]: ≥ 100 nM and ≤ 250 nM | IC50 [2]: > 2500 nM

B15: 2-phenylethylsulfonyl-D-seryl-alanyl-argininal (peptide)
peptide: {2‑phenylethylsulfonyl}-[dS]-Ala-Arg-{aldehyde′}
IC50 [1]: < 100 nM | IC50 [2]: > 2500 nM

B16: N-α-N-β-dibenzyloxycarbonyl-D-2,3-diaminopropionyl-alanyl-argininal (peptide)
peptide: Cbz-[dDap](Cbz)-Ala-[argininal]
IC50 [3]: ≥ 100 nM and ≤ 250 nM | IC50 [1]: ≥ 100 nM and ≤ 250 nM | IC50 [2]: > 2500 nM

B17: benzyloxycarbonyl-D-seryl-S-methylcysteinyl-argininal (peptide)
peptide: Cbz-[dS]-Cys(Me)-Arg-{aldehyde′}
IC50 [1]: ≥ 100 nM and ≤ 250 nM | IC50 [2]: > 2500 nM

B18: benzyloxycarbonyl-D-seryl-prolyl-argininal (peptide)
peptide: Cbz-[dS]-Pro-[argininal]
IC50 [1]: < 100 nM | IC50 [2]: > 2500 nM

B19: cyclohexylmethylazacarbonyl-D-seryl-alanyl-argininal (peptide)
peptide: cyclohexylmethylazacarbonyl-[dS]-Ala-[argininal]
IC50 [3]: > 2500 nM | IC50 [1]: ≥ 100 nM and ≤ 250 nM | IC50 [2]: > 2500 nM

B20: benzyloxycarbonyl-D-alanyl-alanyl-argininal (peptide)
peptide: Cbz-[dA]-Ala-Arg-{aldehyde′}
IC50 [1]: ≥ 100 nM and ≤ 250 nM

B21: benzylazacarbonyl-D-seryl-alanyl-argininal (peptide)
peptide: benzylazacarbonyl-[dS]-Ala-Arg-{aldehyde′}
IC50 [3]: > 2500 nM | IC50 [1]: ≥ 100 nM and ≤ 250 nM | IC50 [2]: > 2500 nM

B22: N-α-(3-phenylpropyl)-D-seryl-alanyl-argininal, trifluoroacetate salt (peptide)
peptide: {3‑phenylpropyl}-[dS]-Ala-Arg-{aldehyde′}
modifications: also: trifluoroacetate salt
IC50 [1]: < 100 nM | IC50 [2]: > 2500 nM

B23: 2-ethylhexyloxy-carbonyl-D-seryl-alanyl-argininal (peptide)
peptide: {2‑ethylhexyloxycarbonyl}-[dS]-Ala-Arg-{aldehyde′}
IC50 [1]: < 100 nM | IC50 [2]: > 2500 nM

B24: benzyloxycarbonyl-D-homoseryl-prolyl-argininal (peptide)
peptide: Cbz-[d(hSer)]-Pro-[argininal]
IC50 [3]: < 100 nM | IC50 [1]: ≥ 100 nM and ≤ 250 nM | IC50 [2]: > 2500 nM

B25: benzyloxycarbonyl-D-allothreonyl-sarcosyl-argininal (peptide)
peptide: Cbz-[d(aThr)]-[Sar]-Arg-{aldehyde′}
IC50 [1]: ≥ 100 nM and ≤ 250 nM

B26: trans-β-Styrenesulfonyl-D-seryl-L-alanyl-argininal (peptide)
peptide: {trans‑β‑styrenesulfonyl}-[dS]-Ala-[argininal]
IC50 [1]: < 100 nM | IC50 [2]: > 2500 nM

B27: N-α-benzyloxycarbonyl-N-β-2-phenylethylcarbonyl-D-2,3-diaminopropionyl-alanyl-argininal (peptide)
peptide: Cbz-[dDap](2‑phenylethylcarbonyl)-Ala-[argininal]
IC50 [2]: > 2500 nM

B28: benzyloxycarbonyl-D-2-aminobutyryl-L-alanyl-argininal (peptide)
peptide: Cbz-[dAbu]-Ala-[argininal]
IC50 [2]: > 2500 nM

B29: benzyloxycarbonyl-D-threonyl-prolyl-argininal (peptide)
peptide: Cbz-[dT]-Pro-[argininal]
IC50 [1]: ≥ 100 nM and ≤ 250 nM | IC50 [2]: > 2500 nM

B30: Benzenesufonyl-D-Ser-L-Ala-L-Arg-al, Trifluoroacetate Salt (peptide)
peptide: benzenesulfonyl-[dS]-Ala-Arg-{aldehyde′}
modifications: also: trifluoroacetate salt
IC50 [1]: < 100 nM | IC50 [2]: > 2500 nM

B31: (+)menthyloxy-carbonyl-D-seryl-alanyl-argininal (peptide)
peptide: {(+)menthyloxycarbonyl}-[dS]-Ala-[Argininal]
IC50 [1]: < 100 nM | IC50 [2]: > 2500 nM

B32: methyloxycarbonyl-D-seryl-alanyl-argininal (peptide)
peptide: methyloxycarbonyl-[dS]-Ala-[argininal]
IC50 [1]: < 100 nM | IC50 [2]: > 2500 nM

B33: 2-naphthyloxy-carbonyl-D-seryl-alanyl-argininal (peptide)
peptide: {2‑naphthyloxycarbonyl}-[dS]-Ala-Arg-{aldehyde′}
IC50 [1]: < 100 nM | IC50 [2]: > 2500 nM

B34: benzyloxycarbonyl-D-threonyl-alanyl-argininal (peptide)
peptide: Cbz-[dT]-Ala-[argininal]
IC50 [2]: > 2500 nM

B35: isopropyloxycarbonyl-D-seryl-alanyl-argininal (peptide)
peptide: Isopropoxycarbonyl-[dS]-Ala-[argininal]
IC50 [3]: > 2500 nM | IC50 [1]: < 100 nM | IC50 [2]: > 2500 nM

B36: benzyloxycarbonyl-D-seryl-L-cis-4-hydroxyprolyl-argininal (peptide)
peptide: Cbz-[dS]-[cisHyp]-Arg-{aldehyde′}
IC50 [1]: < 100 nM | IC50 [2]: > 2500 nM

B37: Isobutyloxycarbonyl-D-seryl-L-alanyl-argininal (peptide)
peptide: isobutyloxycarbonyl-[dS]-Ala-[Argininal]
modifications: not fully specified (C-terminus); printed as i-Butoxycarbonyl-D-Ser-L-Ala-Argininal; also: trifluoroacetate salt
IC50 [1]: < 100 nM | IC50 [2]: > 2500 nM

B38: Benzylsulfonyl-D-Ser-Ala-Arg-al, Trifluoroacetate Salt (peptide)
peptide: benzylsulfonyl-[dS]-Ala-Arg-{aldehyde′}
modifications: also: trifluoroacetate salt
IC50 [1]: < 100 nM | IC50 [2]: > 2500 nM

B39: n-butyloxycarbonyl-D-seryl-alanyl-argininal (peptide)
peptide: {n‑butyloxycarbonyl}-[dS]-Ala-[argininal]
IC50 [1]: < 100 nM | IC50 [2]: > 2500 nM

B40: benzyloxycarbonyl-D-seryl-alanyl-argininal (peptide)
peptide: Cbz-[dS]-Ala-[argininal]
IC50 [1]: < 100 nM

B41: fluorenylmethyloxycarbonyl-D-seryl-alanyl-argininal (peptide)
peptide: fluorenylmethyloxycarbonyl-[dS]-Ala-[argininal]
IC50 [1]: < 100 nM | IC50 [2]: > 2500 nM

B42: phenoxycarbonyl-D-seryl-alanyl-argininal (peptide)
peptide: phenoxycarbonyl-[dS]-Ala-[argininal]
IC50 [1]: < 100 nM | IC50 [2]: > 2500 nM
